The record followed here is doi:10.1101/559534v1 (biorxiv, 2019).

What is called Km is the substrate concentration at which the rate is half of its maximum. A word on the kcat: it is the maximal rate divided by the concentration of active sites.

Substrate in data set [1]: C[N+](C)(C)CC=O
Description: purified protein. As to conditions: NADPH as co-substrate.

Substrate in data set [2]: C[N+](C)(C)CC(=O)[O-]
Description: carboxylic acid reductase steady-state kinetics, NADPH oxidation. The class given is biochemical, Aspergillus nidulans. Conditions: ATP and NADPH as co-substrates; R2 inactivated.

Substrate in data set [3]: CN(C)CC(=O)O
Description: purified protein. Conditions: ATP and NADPH as co-substrates; fit with substrate inhibition.

Substrate in data set [4]: C[N+](C)(C)CC(=O)[O-]
Description: purified protein. The format is biochemical, Aspergillus nidulans. As to conditions: holo-enzyme; ATP and NADPH as co-substrates.

B1: ATRR (ATR1R2) (Aspergillus nidulans FGSC A4; Y812F) (protein)
chain: MAIIDTTKDLSALFTQQVRASPNALALEDDKTSYTYAELDKEVEELSRRLRSYGVSRDSLVGVLLPRSAHFVIACLAALRAGGAFLVLELAYPPDLLADVLEDATPAVVVTHRSETGKIKGSVPVISLDEPPVDANGHTVEPGPLPVDDDLDRLAFVSYSSGTTGKPKGIANPHRAPVLSYNLRFGVQDLQPGDRVACNVFFIWEILRPLIRGATVVAVPDDHSYDPAALVDLLASRHITETLMTPTLLATILSRHSDIGARLPELRTLWLNGEVVTTDLARRAIRALPNTRLLNCYSACETHEIACGDIKEIVSDESQYCPVGPLLDPKHAYIVNEQGEKVEEGVSGELCVGGPMLARGYINRPETTAKAFIPDPFSNSPGAVMYRTGDRARMLPSGLLEITGRVGAMIKLRGYSVVPGKVENDIVKHLAVRQCAVVAHGEGLERQLVAYIVADQEHSEERPTVEINSSGHSPGARRALTKFLAHYMIPALWVQVDELPTHEVSGKIDLKRLPPPPTEVLANGNGKKEDPIGIEDIAAIWAVALKVPKATLKPEDNFFDLGGHSLSIADLSSRLSRKFGFRIPIVRLAENSTLSGHLDTVRAIRDGHTAAVQADLPAVLRTDATLDEEIRSDAKICSLTDAKTVLLTGVTGFLGAFLLKDLVDSTSAHIICLVRFNEPEDDDQPGGVARIRRNLLDLGLWNDSIMERVEILPGNLSRSRFGLTPDAFQELAQRVDVIVHAAASVNLVYPYAALRAANVGGTREILRLASQGGATVQYVSTNGVLPPSGEKGWPEDTMLDMKDVPTKLLDGFGQTKWVAEQLVLEAGRRGLPVRVHRIGTVSGHSQSGAANAWDLLTALIVESIKLGKYPDVEGWRAEMTPVDFVSKAIIHLANQTAVEQTVFHIGDPDPVNTRSVFEDLKTLGYPTEPLSWDDWVALWTSQRGHVKGGDGGFTVDILRSGMPSIEFLRGIVVLDNSATRPIRREVERPKVDRFLLETYTRHWFARGWLKRPPIRQRQLSPIPKGPLSGKVAVVTGASSGIGAAVATALAREGAHVALGARRLDALESLKEKLSASGVKVVTCKTDVTDRKQVEGLVKAATEELGPVDILVACAGVMYFTMMANTQMDEWERTVDVNCKGILNSLASTVPGMLARGKGHVVAISSDAGRKVFPGLGVYSASKFFVEATLQALRLETAGQGLRVTAVQPGNTATDLLGMSTDAEAIKKYGEPSGAQILDPEDVANSIIYALRQPEHVAMNEILIEPRDEPI
With B1, in “purified protein [1]” (R1 inactivated), the Km worked out at 240 ± 30 µM and the kcat worked out at 7.0 ± 0.2 s⁻¹.

B2: ATRR (ATR1R2) (Aspergillus nidulans FGSC A4; G1036A/Y1178F) (protein)
chain: MAIIDTTKDLSALFTQQVRASPNALALEDDKTSYTYAELDKEVEELSRRLRSYGVSRDSLVGVLLPRSAHFVIACLAALRAGGAFLVLELAYPPDLLADVLEDATPAVVVTHRSETGKIKGSVPVISLDEPPVDANGHTVEPGPLPVDDDLDRLAFVSYSSGTTGKPKGIANPHRAPVLSYNLRFGVQDLQPGDRVACNVFFIWEILRPLIRGATVVAVPDDHSYDPAALVDLLASRHITETLMTPTLLATILSRHSDIGARLPELRTLWLNGEVVTTDLARRAIRALPNTRLLNCYSACETHEIACGDIKEIVSDESQYCPVGPLLDPKHAYIVNEQGEKVEEGVSGELCVGGPMLARGYINRPETTAKAFIPDPFSNSPGAVMYRTGDRARMLPSGLLEITGRVGAMIKLRGYSVVPGKVENDIVKHLAVRQCAVVAHGEGLERQLVAYIVADQEHSEERPTVEINSSGHSPGARRALTKFLAHYMIPALWVQVDELPTHEVSGKIDLKRLPPPPTEVLANGNGKKEDPIGIEDIAAIWAVALKVPKATLKPEDNFFDLGGHSLSIADLSSRLSRKFGFRIPIVRLAENSTLSGHLDTVRAIRDGHTAAVQADLPAVLRTDATLDEEIRSDAKICSLTDAKTVLLTGVTGFLGAFLLKDLVDSTSAHIICLVRFNEPEDDDQPGGVARIRRNLLDLGLWNDSIMERVEILPGNLSRSRFGLTPDAFQELAQRVDVIVHAAASVNLVYPYAALRAANVGGTREILRLASQGGATVQYVSTNGVLPPSGEKGWPEDTMLDMKDVPTKLLDGYGQTKWVAEQLVLEAGRRGLPVRVHRIGTVSGHSQSGAANAWDLLTALIVESIKLGKYPDVEGWRAEMTPVDFVSKAIIHLANQTAVEQTVFHIGDPDPVNTRSVFEDLKTLGYPTEPLSWDDWVALWTSQRGHVKGGDGGFTVDILRSGMPSIEFLRGIVVLDNSATRPIRREVERPKVDRFLLETYTRHWFARGWLKRPPIRQRQLSPIPKGPLSGKVAVVTAASSGIGAAVATALAREGAHVALGARRLDALESLKEKLSASGVKVVTCKTDVTDRKQVEGLVKAATEELGPVDILVACAGVMYFTMMANTQMDEWERTVDVNCKGILNSLASTVPGMLARGKGHVVAISSDAGRKVFPGLGVFSASKFFVEATLQALRLETAGQGLRVTAVQPGNTATDLLGMSTDAEAIKKYGEPSGAQILDPEDVANSIIYALRQPEHVAMNEILIEPRDEPI
In the case of B2, the Km worked out at 2600 ± 500 µM in the data set “purified protein [1]” (R2 inactivated) and 2200 ± 300 µM in data set [2]. Moreover, the kcat was 0.018 ± 0.001 s⁻¹ in “purified protein [1]” (R2 inactivated) and 0.66 ± 0.02 s⁻¹ in data set [2].

B3: ATRR (ATR1R2) (Aspergillus nidulans FGSC A4; Y1178F) (protein)
chain: MAIIDTTKDLSALFTQQVRASPNALALEDDKTSYTYAELDKEVEELSRRLRSYGVSRDSLVGVLLPRSAHFVIACLAALRAGGAFLVLELAYPPDLLADVLEDATPAVVVTHRSETGKIKGSVPVISLDEPPVDANGHTVEPGPLPVDDDLDRLAFVSYSSGTTGKPKGIANPHRAPVLSYNLRFGVQDLQPGDRVACNVFFIWEILRPLIRGATVVAVPDDHSYDPAALVDLLASRHITETLMTPTLLATILSRHSDIGARLPELRTLWLNGEVVTTDLARRAIRALPNTRLLNCYSACETHEIACGDIKEIVSDESQYCPVGPLLDPKHAYIVNEQGEKVEEGVSGELCVGGPMLARGYINRPETTAKAFIPDPFSNSPGAVMYRTGDRARMLPSGLLEITGRVGAMIKLRGYSVVPGKVENDIVKHLAVRQCAVVAHGEGLERQLVAYIVADQEHSEERPTVEINSSGHSPGARRALTKFLAHYMIPALWVQVDELPTHEVSGKIDLKRLPPPPTEVLANGNGKKEDPIGIEDIAAIWAVALKVPKATLKPEDNFFDLGGHSLSIADLSSRLSRKFGFRIPIVRLAENSTLSGHLDTVRAIRDGHTAAVQADLPAVLRTDATLDEEIRSDAKICSLTDAKTVLLTGVTGFLGAFLLKDLVDSTSAHIICLVRFNEPEDDDQPGGVARIRRNLLDLGLWNDSIMERVEILPGNLSRSRFGLTPDAFQELAQRVDVIVHAAASVNLVYPYAALRAANVGGTREILRLASQGGATVQYVSTNGVLPPSGEKGWPEDTMLDMKDVPTKLLDGYGQTKWVAEQLVLEAGRRGLPVRVHRIGTVSGHSQSGAANAWDLLTALIVESIKLGKYPDVEGWRAEMTPVDFVSKAIIHLANQTAVEQTVFHIGDPDPVNTRSVFEDLKTLGYPTEPLSWDDWVALWTSQRGHVKGGDGGFTVDILRSGMPSIEFLRGIVVLDNSATRPIRREVERPKVDRFLLETYTRHWFARGWLKRPPIRQRQLSPIPKGPLSGKVAVVTGASSGIGAAVATALAREGAHVALGARRLDALESLKEKLSASGVKVVTCKTDVTDRKQVEGLVKAATEELGPVDILVACAGVMYFTMMANTQMDEWERTVDVNCKGILNSLASTVPGMLARGKGHVVAISSDAGRKVFPGLGVFSASKFFVEATLQALRLETAGQGLRVTAVQPGNTATDLLGMSTDAEAIKKYGEPSGAQILDPEDVANSIIYALRQPEHVAMNEILIEPRDEPI
As to B3, in “purified protein [1]” (R2 inactivated), the Km is 1500 ± 600 µM and the kcat turned out to be 0.30 ± 0.04 s⁻¹. Further, in data set [2], the Km came out at 2200 ± 200 µM and the kcat was found to be 0.72 ± 0.02 s⁻¹.

B4: ATRR (ATR1R2) (Aspergillus nidulans FGSC A4) (protein)
chain: MAIIDTTKDLSALFTQQVRASPNALALEDDKTSYTYAELDKEVEELSRRLRSYGVSRDSLVGVLLPRSAHFVIACLAALRAGGAFLVLELAYPPDLLADVLEDATPAVVVTHRSETGKIKGSVPVISLDEPPVDANGHTVEPGPLPVDDDLDRLAFVSYSSGTTGKPKGIANPHRAPVLSYNLRFGVQDLQPGDRVACNVFFIWEILRPLIRGATVVAVPDDHSYDPAALVDLLASRHITETLMTPTLLATILSRHSDIGARLPELRTLWLNGEVVTTDLARRAIRALPNTRLLNCYSACETHEIACGDIKEIVSDESQYCPVGPLLDPKHAYIVNEQGEKVEEGVSGELCVGGPMLARGYINRPETTAKAFIPDPFSNSPGAVMYRTGDRARMLPSGLLEITGRVGAMIKLRGYSVVPGKVENDIVKHLAVRQCAVVAHGEGLERQLVAYIVADQEHSEERPTVEINSSGHSPGARRALTKFLAHYMIPALWVQVDELPTHEVSGKIDLKRLPPPPTEVLANGNGKKEDPIGIEDIAAIWAVALKVPKATLKPEDNFFDLGGHSLSIADLSSRLSRKFGFRIPIVRLAENSTLSGHLDTVRAIRDGHTAAVQADLPAVLRTDATLDEEIRSDAKICSLTDAKTVLLTGVTGFLGAFLLKDLVDSTSAHIICLVRFNEPEDDDQPGGVARIRRNLLDLGLWNDSIMERVEILPGNLSRSRFGLTPDAFQELAQRVDVIVHAAASVNLVYPYAALRAANVGGTREILRLASQGGATVQYVSTNGVLPPSGEKGWPEDTMLDMKDVPTKLLDGYGQTKWVAEQLVLEAGRRGLPVRVHRIGTVSGHSQSGAANAWDLLTALIVESIKLGKYPDVEGWRAEMTPVDFVSKAIIHLANQTAVEQTVFHIGDPDPVNTRSVFEDLKTLGYPTEPLSWDDWVALWTSQRGHVKGGDGGFTVDILRSGMPSIEFLRGIVVLDNSATRPIRREVERPKVDRFLLETYTRHWFARGWLKRPPIRQRQLSPIPKGPLSGKVAVVTGASSGIGAAVATALAREGAHVALGARRLDALESLKEKLSASGVKVVTCKTDVTDRKQVEGLVKAATEELGPVDILVACAGVMYFTMMANTQMDEWERTVDVNCKGILNSLASTVPGMLARGKGHVVAISSDAGRKVFPGLGVYSASKFFVEATLQALRLETAGQGLRVTAVQPGNTATDLLGMSTDAEAIKKYGEPSGAQILDPEDVANSIIYALRQPEHVAMNEILIEPRDEPI
As for B4, the Km in “purified protein [3]” was 5800 ± 800 µM; in “purified protein [1]” (R2 site) it was 240 ± 30 µM; in the data set “purified protein [4]” it was 2100 ± 200 µM. For the same protein, the kcat is 0.023 ± 0.002 s⁻¹ in “purified protein [3]”, 7.1 ± 0.3 s⁻¹ in the data set “purified protein [1]” (R2 site) and 0.94 ± 0.03 s⁻¹ in “purified protein [4]”.
